Results on four molecules are retold here after US20200239579A1 (Genmab, published 2020).

Test [1] deals with T1, human PD-L2 (full length, on CHO cells) (human, UniProt Q9BQ51 20-273).
T1 construct: whole, on cells; also called CHO-PD-L2 cells
T1 sequence (looked up): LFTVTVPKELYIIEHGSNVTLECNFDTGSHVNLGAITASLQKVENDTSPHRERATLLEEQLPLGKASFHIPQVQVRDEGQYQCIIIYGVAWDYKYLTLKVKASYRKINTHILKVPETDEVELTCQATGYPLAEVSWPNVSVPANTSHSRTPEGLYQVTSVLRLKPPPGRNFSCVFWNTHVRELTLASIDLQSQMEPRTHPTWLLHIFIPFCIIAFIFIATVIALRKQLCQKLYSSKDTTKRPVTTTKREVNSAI
As to the kind of experiment: flow cytometry on CHO cells expressing human PD-L2. The method, then: (§1) Cells (3-5×10⁴ cells/well) were incubated in polystyrene 96-well round-bottom plates (Greiner bio-one, cat. no. 650101) with serial dilutions of antibodies (range 0.0001 to 10 μg/mL in 5-fold dilution steps) in 50 μL PBS/0.1% BSA/0.02% azide (staining buffer) at 4° C. for 30 min.
(§2) After washing twice in staining buffer, cells were incubated in 50 μL secondary antibody at 4° C. for 30 min. As a secondary antibody, R-Phycoerythrin (PE)-conjugated goat-anti-human IgG F(ab′)₂ (Cat. no. 109-116-098, Jackson ImmunoResearch Laboratories, Inc., West Grove, Pa.) diluted 1:500 in staining buffer, was used for all experiments. Next, cells were washed twice in staining buffer, re-suspended in 20 μL staining buffer and analyzed on an iQue screener (Intellicyt Corporation, USA). Binding curves were analyzed using non-linear regression (sigmoidal dose-response with variable slope) using GraphPad Prism V75.04 software (GraphPad Software, San Diego, Calif., USA).
A PE-conjugated PD-L2 specific antibody (Mylteni, clone MIH18; cat. no. 130-098-651) was used as positive control.

Test [2] deals with T2, human PD-L1 (full length, on cells) (human, UniProt Q9NZQ7 19-290).
T2 construct: The entry holds the signal peptide; also called CD274; B7H1
T2 sequence (Q9NZQ7 19-290 limits assumed): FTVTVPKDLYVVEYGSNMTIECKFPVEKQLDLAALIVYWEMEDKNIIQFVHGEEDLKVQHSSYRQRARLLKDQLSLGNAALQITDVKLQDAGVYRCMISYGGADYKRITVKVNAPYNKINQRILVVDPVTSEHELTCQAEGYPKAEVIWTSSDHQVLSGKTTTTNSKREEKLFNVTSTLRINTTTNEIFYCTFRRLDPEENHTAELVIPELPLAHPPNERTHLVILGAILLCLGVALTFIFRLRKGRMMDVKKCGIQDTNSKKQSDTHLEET
As to the kind of experiment: flow cytometry on PC3 cells, PE anti-human IgG secondary, MFI (PE). The method, then: as §1, §2
On the technique in general: In flow cytometry, cells or beads pass a laser one at a time.

Test [3] addresses T2, human PD-L1 (full length, on cells). Briefly: flow cytometry on HELA cells, PE anti-human IgG secondary, MFI (PE). The method, then: as §1, §2
The target is the same in test [4]. Briefly: flow cytometry on MDA-MB-231 cells, PE anti-human IgG secondary, MFI (PE). The method, then: as §1, §2
For test [5], the target named is T3, cynomolgus monkey PD-L1 (full length, on CHO cells) (cynomolgus monkey (Macaca fascicularis), UniProt G7PSE7 19-290).
T3 construct: whole, on cells; also called PDL1 Mf; cynomolgus PD-L1
T3 sequence (G7PSE7 entry or part of it): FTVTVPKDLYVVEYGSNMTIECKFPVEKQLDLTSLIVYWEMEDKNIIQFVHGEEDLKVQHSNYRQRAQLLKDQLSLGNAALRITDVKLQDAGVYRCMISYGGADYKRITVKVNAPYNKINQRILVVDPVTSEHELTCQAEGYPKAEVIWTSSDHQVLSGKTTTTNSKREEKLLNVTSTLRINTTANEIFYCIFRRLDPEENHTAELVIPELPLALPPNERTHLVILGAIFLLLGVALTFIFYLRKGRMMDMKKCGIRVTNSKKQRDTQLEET
As to the kind of experiment: flow cytometry on CHO cells transfected with cynomolgus PD-L1, PE anti-human IgG secondary, MFI (PE). The method, then:
as §1, §2
Binding to CHO cells expressing cynomolgus PD-L1 was determined by flow cytometry using a method as described above.

In test [6] the target is T2, human PD-L1 (full length, on cells). As to the kind of experiment: flow cytometry on MDA-MB-231 cells, PE anti-human IgG secondary, MFI (PE). Here is the method:
as §1, §2
The source holds these as a separate data set.

Test [7] deals with T4, PDLoneECDHisCtag (human, UniProt Q9NZQ7 19-238).
T4 construct: Expressed in HEK-293F cells; theoretical molecular weight 29 kDa; also called recombinant human PD-L1 ECD; human PD-L1 (BLI); not shown: C-terminal His-tag; C-tag
T4 sequence (Q9NZQ7 19-238, form in doubt): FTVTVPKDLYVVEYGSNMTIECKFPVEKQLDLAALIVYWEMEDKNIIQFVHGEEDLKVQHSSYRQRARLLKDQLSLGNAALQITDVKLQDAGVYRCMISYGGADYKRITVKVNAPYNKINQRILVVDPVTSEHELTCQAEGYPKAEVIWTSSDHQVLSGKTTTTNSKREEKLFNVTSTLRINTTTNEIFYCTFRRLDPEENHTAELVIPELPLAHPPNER
As to the kind of experiment: BLI cross-block, second antibody on PDLoneECDHisCtag held by immobilised 516; bold = blocking. The method, then: (§3) Antibody cross-block testing was performed using biolayer interferometry (BLI) on an Octet HTX instrument (ForteBio). Antibodies (20 μg/ml in 10 mM sodium acetate buffer pH 6.0 (ForteBio)) were immobilized on Amine-Reactive 2nd Generation (AR2G) biosensors (ForteBio) according to the instructions of the manufacturer. After a baseline (50 s) in Sample Diluent (ForteBio), biosensors containing immobilized antibodies were loaded for 500 s with PDLoneECDHisCtag (100 nM or 2.7 μg/ml), after which the association response of a second antibody (10 μg/ml) was followed for 500 s. Biosensors were regenerated by using 3 times 5 s alternating exposures to 10 mM glycine pH 2.5 and Sample Diluent. The experiment was repeated with a new set of second antibodies starting from the baseline step. Each biosensor was used 6 times. The experiment was performed at 30° C. using a shaker speed of 1000 rpm. Data was analyzed using Data Analysis Software v9.0.0.12 (ForteBio). The Y-axis was aligned to the association step and Savitzky-Golay filtering was applied. The average buffer response was subtracted from the association response of the second antibody in order to correct for the dissociation of PDLoneECDHisCtag from the immobilized antibody. The corrected association responses were plotted in a matrix format.

For test [8], the target named is T4, PDLoneECDHisCtag. Briefly: BLI cross-block, second antibody on PDLoneECDHisCtag held by immobilised MPDL; bold = blocking. The method, then: as §3
In test [9] the target is T4, PDLoneECDHisCtag. As to the kind of experiment: BLI cross-block, second antibody on PDLoneECDHisCtag held by immobilised 547; plain = non-blocking. Here is the method: as §3
Test [10] addresses T4, PDLoneECDHisCtag. Briefly: BLI cross-block, second antibody on PDLoneECDHisCtag held by immobilised 632; plain = non-blocking. The method, then:
as §3

Test [11] addresses T4, PDLoneECDHisCtag. Briefly: BLI cross-block, second antibody on PDLoneECDHisCtag held by immobilised 421-LC91S; bold = blocking. The method, then: as §3
For test [12], the target named is T4, PDLoneECDHisCtag. Briefly: BLI cross-block, second antibody on PDLoneECDHisCtag held by immobilised 511-LC33S; plain = non-blocking. Here is the method: as §3
Test [13] deals with T4, PDLoneECDHisCtag. Briefly: BLI cross-block, second antibody on PDLoneECDHisCtag held by immobilised 476-N101Q-LC33S; plain = non-blocking. Here is the method:
as §3

In test [14] the target is T2, human PD-L1 (full length, on cells). Briefly: flow cytometry on HEK293 cells expressing wild type or alanine-mutant PD-L1.

B1: bsIgG1-huCD3-H1L1-FEAL×547-FEAR (bispecific antibody)
heavy 1: not shown
VL: not shown
heavy 2: EVQLLEPGGGLVQPGGSLRLSCEASGSTFSTYAMSWVRQAPGKGLEWVSGFSGSGGFTFYADSVRGRFTISRDSSKNTLFLQMSSLRAEDTAVYYCAIPARGYNYGSFQHWGQGTLVTVSSASTKGPSVFPLAPSSKSTSGGTAALGCLVKDYFPEPVTVSWNSGALTSGVHTFPAVLQSSGLYSLSSVVTVPSSSLGTQTYICNVNHKPSNTKVDKRVEPKSCDKTHTCPPCPAPEFEGGPSVFLFPPKPKDTLMISRTPEVTCVVVAVSHEDPEVKFNWYVDGVEVHNAKTKPREEQYNSTYRVVSVLTVLHQDWLNGKEYKCKVSNKALPAPIEKTISKAKGQPREPQVYTLPPSREEMTKNQVSLTCLVKGFYPSDIAVEWESNGQPENNYKTTPPVLDSDGSFFLYSRLTVDKSRWQQGNVFSCSVMHEALHNHYTQKSLSLSPGK
light: SYVLTQPPSVSVAPGQTARITCGGNNIGSKSVHWYQQKPGQAPVLVVYDDNDRPSGLPERFSGSNSGNTATLTISRVEAGDEADYYCQVWDSSSDHVVFGGGTKLTVLGQPKAAPSVTLFPPSSEELQANKATLVCLISDFYPGAVTVAWKADSSPVKAGVETTTPSKQSNNKYAASSYLSLTPEQWKSHRSYSCQVTHEGSTVEKTVAPTECS
With B1, the binding result in test [1] is recorded as “no binding”. Moreover, the half-maximal effective concentration (EC50 (read off the curve)) was around 0.03 µg/mL in test [2], around 0.02 µg/mL in test [3], around 0.08 µg/mL in test [4] and around 0.06 µg/mL in test [5].

B2: bsIgG1-huCD3-H1L1-FEAL×338-FEAR (bispecific antibody)
heavy 1: not shown
VL: not shown
heavy 2: EVQVVESGGGLVQPGGSLRLSCAASGFTFSRFWMSWVRQAPGKGLEWVANIKQDGGEKYYVDSVKGRFTISRDNAKNSLYLQMNSLRGEDTAVYYCARDDNWNGHFDYWGQGTLVTVSSASTKGPSVFPLAPSSKSTSGGTAALGCLVKDYFPEPVTVSWNSGALTSGVHTFPAVLQSSGLYSLSSVVTVPSSSLGTQTYICNVNHKPSNTKVDKRVEPKSCDKTHTCPPCPAPEFEGGPSVFLFPPKPKDTLMISRTPEVTCVVVAVSHEDPEVKFNWYVDGVEVHNAKTKPREEQYNSTYRVVSVLTVLHQDWLNGKEYKCKVSNKALPAPIEKTISKAKGQPREPQVYTLPPSREEMTKNQVSLTCLVKGFYPSDIAVEWESNGQPENNYKTTPPVLDSDGSFFLYSRLTVDKSRWQQGNVFSCSVMHEALHNHYTQKSLSLSPGK
light: DIQMTQSPSTLSASVGDRVTITCRASQSISSWLAWYQQKPGKAPNLLIYKASSLESGVPSRFSGSGSGTEFTLTISSLQPDDFATYYCQQYYGSYITFGQGTRLEIKRTVAAPSVFIFPPSDEQLKSGTASVVCLLNNFYPREAKVQWKVDNALQSGNSQESVTEQDSKDSTYSLSSTLTLSKADYEKHKVYACEVTHQGLSSPVTKSFNRGEC
As for B2, in test [1], the binding result was “no binding”. In addition, the “EC50 (read off the curve)” value was around 0.03 µg/mL in test [2], around 0.02 µg/mL in [3], around 0.1 µg/mL in test [6] and around 0.09 µg/mL in test [5].

B3: IgG1-516-FEAR (antibody, V domains shown)
VH: QVQLQESGPGLVKPSDTLSLTCAVSDYSISSNDWWGWIRQPPGKGLEWIGYIYYSGTGYYNPSLKSRVTISIDTSKNQFSLKLNSVTAVDTAVYYCARTRVGARRAFDYWGQGTLVTVSS
VL: SYVLTQPPSVSVAPGQTARITCGGNNIGSKSVHWYQQKPGQAPVLVVYDDSDRPSGIPERFSGSNSGNTATLTISRVEAGDEADYYCQVWDSSSDHVVFGGGTKLTVL
As for B3, the “association response of the second antibody” value in test [7] stood at 0 nm; in test [8], 0 nm; in [9], 0.7 nm; in test [10] it was 0.6 nm; in test [11] it was 0 nm; in test [12] it was 0.6 nm. Besides, the “association response of the second antibody” value in test [13] came to 0.7 nm.

B4: IgG1-625-FEAR-A488 (antibody, V domains shown)
VH: HMQLVESGGGVAQPGRSLRLSCAASGFTFSNYGMHWVRQAPGRGLEWLAVMSYDGETKYYADSVKGRFTISRDNSENTLFLQMNSLRAEDTAVYYCAKDTSNGWNYYFYGMDVWGQGTTVTVSS
VL: SYELTQPPSVSVSPGQTARITCSGDALPKKFASWYQQKSGQAPVLVIYEDSKRPSGIPERVSGSSSGTMATLTISGAQTEDEADYYCYSTDRSGYHWVFGGGTKLTVL
notes: also called control antibody of the alanine scan
For B4, the binding result in [14] is recorded as “binds”.

The EC50 (read off the curve) is the concentration that produces a half-maximal response.
